Data on one molecule can be found in patent US20180030127A1 (APRILBIO, published 2018).

Assay [1] has as its target T1, human serum albumin (human, UniProt P02768 25-609).
T1 construct: Bought protein; also called HSA; human SA
Description: biolayer interferometry (Octet RED), SL335 on AR2G biosensor, HSA in solution, pH 6.0. The procedure:
(§1) Real-time binding assays between the purified SL335 and the antigens (human SA, rat SA or mouse SA) were performed using biolayer interferometry with an Octet RED system (ForteBio, Menlo park, Calif., USA) as previously described except that AR2G (Amine Reactive Second-Generation) sensors were used (Costin et al., (2013) J Virol. 87, 52-66). Briefly, the predetermined concentration of SL335 was coupled to kinetics grade AR2G biosensors, and unbound Fab fragments were removed from the surfaces of the sensors by incubating in the kinetics buffer […]. […] The binding and dissociation kinetics were calculated using the Octet QK software package, which fit the observed binding curves to a 1:1 binding model to calculate the association rate constants. The association and dissociation rate constants were calculated using at least three different concentrations of human SA, rat SA or mouse SA. The equilibrium dissociation constants were calculated as the kinetic dissociation rate constant divided by the kinetic association rate constant.
(§2) Since SL335 was the best binder among four anti-human SA Fab clones, its cross-reactivity was further analyzed by ELISA. […] The binding affinities of SL335 to human SA, rat SA and mouse SA at pH 6 or pH 7.4 were further measured via biolayer interferometry by passing through different concentration of the antigens on biosensors that were coated with SL335 (see Table 6 below).
On the technique in general: Biolayer interferometry detects binding as a change in optical thickness at a sensor tip.

Assay [2] addresses T1, human serum albumin. Description: biolayer interferometry (Octet RED), SL335 on AR2G biosensor, HSA in solution, pH 7.4. The procedure:
as §1, §2

The next assay concerns the target CD16a (UniProt P08637 17-208). Description: ELISA, soluble Fab, antigen coated at 5 µg/ml.
Assay [3] has as its target T2, epithelial cell adhesion molecule (UniProt P16422 24-265).
T2 construct: also called EpCAM
T2 sequence (looked up): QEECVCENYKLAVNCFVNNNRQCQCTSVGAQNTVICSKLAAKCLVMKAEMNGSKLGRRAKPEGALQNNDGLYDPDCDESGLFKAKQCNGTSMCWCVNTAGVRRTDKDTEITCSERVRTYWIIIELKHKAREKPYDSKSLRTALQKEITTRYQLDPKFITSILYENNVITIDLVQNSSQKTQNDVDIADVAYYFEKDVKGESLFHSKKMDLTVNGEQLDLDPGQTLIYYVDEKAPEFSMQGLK
Description: ELISA, soluble Fab, antigen coated at 5 µg/ml. For orientation: An ELISA detects its analyte on a solid surface through an enzyme-linked reagent.

For assay [4], the target named is T3, cynomolgus monkey serum albumin (cynomolgus monkey, UniProt A2V9Z4 25-608).
T3 construct: also called cynomolgus monkey SA; monkey SA
T3 sequence (A2V9Z4 25-608 limits assumed): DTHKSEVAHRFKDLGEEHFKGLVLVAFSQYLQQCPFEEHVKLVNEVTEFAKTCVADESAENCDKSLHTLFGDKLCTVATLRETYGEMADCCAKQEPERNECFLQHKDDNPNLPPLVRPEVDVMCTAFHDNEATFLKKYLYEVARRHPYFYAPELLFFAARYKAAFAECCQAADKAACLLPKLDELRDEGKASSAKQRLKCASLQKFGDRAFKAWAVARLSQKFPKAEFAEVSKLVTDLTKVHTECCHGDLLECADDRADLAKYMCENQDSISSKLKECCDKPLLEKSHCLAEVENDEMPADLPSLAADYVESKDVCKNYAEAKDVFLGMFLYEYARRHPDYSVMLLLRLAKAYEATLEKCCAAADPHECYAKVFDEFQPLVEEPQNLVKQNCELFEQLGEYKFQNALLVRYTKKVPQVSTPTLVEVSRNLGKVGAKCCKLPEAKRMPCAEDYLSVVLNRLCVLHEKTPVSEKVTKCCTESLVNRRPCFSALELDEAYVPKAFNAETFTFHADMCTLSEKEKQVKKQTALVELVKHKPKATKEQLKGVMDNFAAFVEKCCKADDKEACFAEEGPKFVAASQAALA
The assay is described as follows: ELISA, soluble Fab, antigen coated at 5 µg/ml.

In a further assay the target is T4, rabbit serum albumin (rabbit, UniProt P49065 25-608).
T4 construct: also called rabbit SA
T4 sequence (P49065 25-608 limits assumed): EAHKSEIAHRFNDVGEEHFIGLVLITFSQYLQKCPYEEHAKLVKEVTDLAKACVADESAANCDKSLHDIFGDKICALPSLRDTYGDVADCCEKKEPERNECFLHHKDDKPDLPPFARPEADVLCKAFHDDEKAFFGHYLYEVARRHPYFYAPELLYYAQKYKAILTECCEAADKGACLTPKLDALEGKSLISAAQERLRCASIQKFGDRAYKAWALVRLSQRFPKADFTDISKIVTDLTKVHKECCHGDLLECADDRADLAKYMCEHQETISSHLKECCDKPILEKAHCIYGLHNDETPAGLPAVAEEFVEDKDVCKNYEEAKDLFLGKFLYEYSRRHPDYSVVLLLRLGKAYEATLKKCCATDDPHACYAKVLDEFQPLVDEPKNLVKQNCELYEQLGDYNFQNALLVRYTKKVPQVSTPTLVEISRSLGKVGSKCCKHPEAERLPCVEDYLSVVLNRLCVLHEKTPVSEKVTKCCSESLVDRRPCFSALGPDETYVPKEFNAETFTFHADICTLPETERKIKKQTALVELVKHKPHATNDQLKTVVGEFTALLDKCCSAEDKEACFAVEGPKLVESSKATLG
The assay is described as follows: ELISA, soluble Fab, antigen coated at 5 µg/ml.

Another assay addresses T5, IL-15 receptor a (UniProt Q13261 31-205).
T5 construct: also called IL-15Ra
Description: ELISA, soluble Fab, antigen coated at 5 µg/ml.

Assay [5] concerns the target T6, epidermal growth factor receptor (UniProt P00533 25-645).
T6 construct: also called EGFR
The assay is described as follows: ELISA, soluble Fab, antigen coated at 5 µg/ml.

The target of the next assay is c-MET (UniProt P08581 25-932, limits assumed). The assay is described as follows: ELISA, soluble Fab, antigen coated at 5 µg/ml.
c-MET, sequence (P08581 25-932 limits assumed): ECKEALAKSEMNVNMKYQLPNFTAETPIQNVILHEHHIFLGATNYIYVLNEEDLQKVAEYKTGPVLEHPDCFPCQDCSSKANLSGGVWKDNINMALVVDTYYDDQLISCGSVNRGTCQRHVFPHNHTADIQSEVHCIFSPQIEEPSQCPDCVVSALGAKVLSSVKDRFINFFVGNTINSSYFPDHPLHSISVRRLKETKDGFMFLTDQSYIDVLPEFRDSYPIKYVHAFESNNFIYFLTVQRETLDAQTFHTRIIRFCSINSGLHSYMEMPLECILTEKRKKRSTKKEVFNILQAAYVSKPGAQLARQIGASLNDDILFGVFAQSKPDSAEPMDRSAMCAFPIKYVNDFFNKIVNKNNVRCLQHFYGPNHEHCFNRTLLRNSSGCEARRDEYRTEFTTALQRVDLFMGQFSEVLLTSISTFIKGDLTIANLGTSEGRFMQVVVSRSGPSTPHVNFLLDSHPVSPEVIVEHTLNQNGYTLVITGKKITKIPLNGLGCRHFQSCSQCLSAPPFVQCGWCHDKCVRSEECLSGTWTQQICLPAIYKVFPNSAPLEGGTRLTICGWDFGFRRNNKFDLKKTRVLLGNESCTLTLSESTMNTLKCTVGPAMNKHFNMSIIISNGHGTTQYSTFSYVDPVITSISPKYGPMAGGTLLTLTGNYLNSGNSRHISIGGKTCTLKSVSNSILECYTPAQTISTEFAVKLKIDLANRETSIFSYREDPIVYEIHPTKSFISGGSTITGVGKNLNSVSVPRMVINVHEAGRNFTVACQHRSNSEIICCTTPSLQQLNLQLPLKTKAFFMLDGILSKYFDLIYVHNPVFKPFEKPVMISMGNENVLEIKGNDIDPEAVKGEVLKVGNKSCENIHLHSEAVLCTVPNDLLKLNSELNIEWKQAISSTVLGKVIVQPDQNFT
For another assay, the target named is T7, IL-1b (UniProt P01584 117-269, limits assumed).
T7 construct: The identity is uncertain because the two printings differ
Description: ELISA, soluble Fab, antigen coated at 5 µg/ml.

For assay [6], the target named is T8, rat serum albumin (rat, UniProt P02770 25-608).
T8 construct: Bought protein; also called RSA; rat SA
T8 sequence (P02770 25-608 limits assumed): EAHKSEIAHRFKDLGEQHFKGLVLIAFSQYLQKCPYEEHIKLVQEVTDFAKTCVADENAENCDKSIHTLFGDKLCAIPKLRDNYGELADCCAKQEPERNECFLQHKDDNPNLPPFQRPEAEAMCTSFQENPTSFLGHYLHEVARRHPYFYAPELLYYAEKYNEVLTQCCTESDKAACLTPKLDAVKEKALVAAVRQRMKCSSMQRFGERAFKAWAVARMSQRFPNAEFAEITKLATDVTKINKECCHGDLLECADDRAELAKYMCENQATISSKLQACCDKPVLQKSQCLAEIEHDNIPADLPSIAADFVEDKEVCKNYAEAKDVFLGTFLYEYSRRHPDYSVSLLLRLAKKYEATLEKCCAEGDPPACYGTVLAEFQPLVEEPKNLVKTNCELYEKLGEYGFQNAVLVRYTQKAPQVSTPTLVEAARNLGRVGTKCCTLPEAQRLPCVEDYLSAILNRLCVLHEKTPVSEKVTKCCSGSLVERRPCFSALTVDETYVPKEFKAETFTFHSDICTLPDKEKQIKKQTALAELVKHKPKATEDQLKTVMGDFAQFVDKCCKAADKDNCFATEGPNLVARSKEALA
The assay is described as follows: biolayer interferometry (Octet RED), SL335 on AR2G biosensor, RSA in solution, pH 6.0. How it is done:
as §1, §2

Assay [7] deals with T8, rat serum albumin. The assay is described as follows: biolayer interferometry (Octet RED), SL335 on AR2G biosensor, RSA in solution, pH 7.4. How it is done: as §1, §2

CD16a, sequence (P08637 17-208 limits assumed): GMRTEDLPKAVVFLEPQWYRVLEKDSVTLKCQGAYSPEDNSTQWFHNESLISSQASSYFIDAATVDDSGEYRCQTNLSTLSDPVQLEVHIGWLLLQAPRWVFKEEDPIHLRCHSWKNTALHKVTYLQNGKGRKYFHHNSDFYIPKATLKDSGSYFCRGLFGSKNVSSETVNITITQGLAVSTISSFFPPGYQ
T5 sequence (Q13261 31-205 limits assumed): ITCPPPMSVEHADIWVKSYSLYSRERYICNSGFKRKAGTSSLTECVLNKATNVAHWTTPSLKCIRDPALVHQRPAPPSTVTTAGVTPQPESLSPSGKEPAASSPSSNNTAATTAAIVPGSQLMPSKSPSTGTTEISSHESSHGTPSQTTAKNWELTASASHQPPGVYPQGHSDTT

B1: SL335 (Fab, V domains shown)
VH: QVQLVQSGGGPVKPGGSLRLSCAASGFMFRAYSMNWVRQAPGKGLEWVSSISSSGRYIHYADSVKGRFTISRDNAKNSLYLQMNSLRAEDTAVYYCARETVMAGKALDYWGQGTLVTVSS
VL: ELVLTQSPGTLSLSPGETATLSCRASQSVGSNLAWYQQKPGQAPRLLIYGASTGATGVPARFSGSRSGTDFTLTITSLQPEDFATYYCQQYYSFLAKTFGQGTQLEIKR
notes: Human anti-serum albumin Fab in the classic form (VH+CH1 with Cys233, VL+CLk with Cys214); tested on phage and as soluble Fab purified from E. coli; also called SL335wt; SL335 Fab
What is called Kd is a measure of binding affinity in units of concentration. The koff is the first-order rate constant of dissociation. As a reminder, the kon is the rate constant with which the complex forms. As for B1, the Kd in the assay with human serum albumin [1] stood at 8.68 nM; in the assay with human serum albumin [2], 13 nM; with rat serum albumin [6], 122 nM; with rat serum albumin [7] it was 65.3 nM. The koff was found to be 0.00155 s⁻¹ with human serum albumin [1], 0.00152 s⁻¹ with human serum albumin [2], 0.00576 s⁻¹ with rat serum albumin [6] and 0.00282 s⁻¹ with rat serum albumin [7]. Besides, the on-rate constant (kon) in the assay with human serum albumin [1] turned out to be 179000 M⁻¹ s⁻¹; with human serum albumin [2], 117000 M⁻¹ s⁻¹; with rat serum albumin [6], 47100 M⁻¹ s⁻¹; in the assay with rat serum albumin [7] it was 43200 M⁻¹ s⁻¹. Besides, the binding result with CD16a is on record as “no binding”; in assay [3] it was “no binding”; in [4], “binds”; with rabbit serum albumin it was “no binding”; with IL-15 receptor a, “no binding”; in [5] it was “no binding”. The binding result with c-MET and in the assay with IL-1b was “no binding” each time.
